Test results published in patent publication US20240228604A1 (ALCHEMAB THERAPEUTICS, published 2024).
Where a chain is given by its changes, count along the chain named. Values belong to the binder of their own block, whether it stands above or below them.

What was measured:
[1] = molecular target: T1, UNC5C recombinant human antigen, Fc-tagged (R&D Systems, #1005-UN) (human, UniProt O95185 41-380, limits assumed); experiment: ELISA, antigen down
T1 construct: Bought protein; also called rhUNC5C; not shown: Fc tag of the bought protein
T1 sequence (O95185 41-380 limits assumed): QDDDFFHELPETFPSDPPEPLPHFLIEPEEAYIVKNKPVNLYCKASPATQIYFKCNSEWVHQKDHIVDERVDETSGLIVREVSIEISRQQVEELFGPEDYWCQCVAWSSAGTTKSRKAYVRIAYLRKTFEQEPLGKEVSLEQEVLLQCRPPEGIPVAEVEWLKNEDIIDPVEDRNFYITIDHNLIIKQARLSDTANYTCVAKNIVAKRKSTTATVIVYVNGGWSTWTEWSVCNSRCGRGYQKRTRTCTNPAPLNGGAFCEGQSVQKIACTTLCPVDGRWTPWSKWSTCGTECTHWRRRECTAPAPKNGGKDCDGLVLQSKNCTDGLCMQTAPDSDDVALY

[2] = molecular target: T2, rmUNC5C, in-house production from HEK293F cells (N-terminal His and FLAG tag + amino acids 41-380 of murine … (mouse, UniProt O08747 41-380)); experiment: direct ELISA
T2 construct: extracellular domain; also called mouse UNC5C (Inhouse antigen); recombinant mouse UNC5C
T2 sequence (O08747 other isoform, or with tags, fused parts or gaps limits assumed): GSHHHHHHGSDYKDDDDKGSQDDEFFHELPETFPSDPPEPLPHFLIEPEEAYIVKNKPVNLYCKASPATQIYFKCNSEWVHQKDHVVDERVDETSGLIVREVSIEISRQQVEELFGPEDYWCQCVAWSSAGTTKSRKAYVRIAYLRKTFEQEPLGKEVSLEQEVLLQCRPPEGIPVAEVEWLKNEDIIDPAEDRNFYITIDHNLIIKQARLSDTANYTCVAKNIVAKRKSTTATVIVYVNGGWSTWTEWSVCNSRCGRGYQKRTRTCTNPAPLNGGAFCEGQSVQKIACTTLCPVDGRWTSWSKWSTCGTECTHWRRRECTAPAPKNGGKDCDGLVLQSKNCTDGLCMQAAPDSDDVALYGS
Procedure: (§1) The plate was washed with PBS. Plates were blocked with 200 μl/well of blocking solution (1% BSA w/v in PBS) for 1 hour at room temperature. Following this, the blocking solution was removed and antibodies to be assessed were diluted in dilution series (1 μM to 0.05 nM) in blocking solution (1% BSA w/v in PBS) and applied to the plate. Plates were incubated at room temperature for 1 hour. The plate was washed with PBS/0.1% Tween. […] The plate was washed with PBS/0.1% Tween and TMB solution (Life Technology; #002023) added. Plates were incubated for 5 minutes at room temperature prior to the addition of stopping solution (0.5M sulphuric acid). Absorbance was read on Molecular Devices FilterMaxF5 plate reader at 450 nm. Analysis was performed using a non-linear fit curve fitting algorithm on GraphPad prism and EC50 calculated.
(§2) To measure the binding potency of antibodies to UNC5C protein, antibodies were assessed in a direct ELISA format for binding to human UNC5C. In addition, a selection of these antibodies was also screened for binding to mouse, cyno, and rat UNC5C in a direct ELISA format.

[3] = molecular target: T3, Recombinant rat UNC5C (N-terminal His and FLAG tag), in-house production from HEK293F cells (rat, UniProt Q761X5 41-380); experiment: direct ELISA
T3 construct: also called rat UNC5C (inhouse antigen); rat antigen
T3 sequence (Q761X5 other isoform, or with tags, fused parts or gaps limits assumed): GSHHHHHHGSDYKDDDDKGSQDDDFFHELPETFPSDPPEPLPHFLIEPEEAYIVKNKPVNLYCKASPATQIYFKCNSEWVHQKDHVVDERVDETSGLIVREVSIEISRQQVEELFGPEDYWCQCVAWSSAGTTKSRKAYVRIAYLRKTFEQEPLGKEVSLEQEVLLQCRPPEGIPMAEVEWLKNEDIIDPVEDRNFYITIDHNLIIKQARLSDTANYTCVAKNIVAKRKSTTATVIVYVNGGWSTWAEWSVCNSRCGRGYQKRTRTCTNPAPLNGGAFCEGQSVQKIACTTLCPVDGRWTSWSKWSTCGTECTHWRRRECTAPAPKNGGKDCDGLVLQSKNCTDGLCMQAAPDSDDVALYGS
Procedure: as §1, §2

[4] = molecular target: T4, Human recombinant UNC5A (BLI antigen) (Human, UniProt Q6ZN44 26-306); experiment: BLI, antigen captured by His tag, antibody as analyte
T4 construct: Captured by His tag; also called UNC5A ectodomain
T4 sequence (Q6ZN44 other isoform, or with tags, fused parts or gaps): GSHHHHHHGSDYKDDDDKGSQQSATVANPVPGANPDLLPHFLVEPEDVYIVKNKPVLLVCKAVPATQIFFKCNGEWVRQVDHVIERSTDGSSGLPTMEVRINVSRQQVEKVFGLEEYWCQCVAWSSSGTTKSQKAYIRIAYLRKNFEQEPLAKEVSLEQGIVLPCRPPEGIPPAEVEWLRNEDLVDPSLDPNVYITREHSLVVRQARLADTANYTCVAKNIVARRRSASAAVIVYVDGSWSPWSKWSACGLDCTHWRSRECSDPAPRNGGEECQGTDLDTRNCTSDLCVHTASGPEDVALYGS
Text: (§3) Antigen was loaded as ligand and dipped into antibody as analyte during association, and assay buffer during dissociation.
(§4) Purified recombinant antigens were purchased from a commercial supplier or prepared and purified in-house and details are shown in Table 2.

[5] = molecular target: T5, Human recombinant UNC5B (BLI antigen) (Human, UniProt Q8IZJ1 27-377); experiment: as above
T5 construct: also called UNC5B ectodomain
Text: as §3, §4

[6] = molecular target: T6, Human recombinant UNC5D (BLI antigen) (Human, UniProt Q6UXZ4 33-379); experiment: as above
T6 construct: also called UNC5D ectodomain
T6 sequence (Q6UXZ4 other isoform, or with tags, fused parts or gaps): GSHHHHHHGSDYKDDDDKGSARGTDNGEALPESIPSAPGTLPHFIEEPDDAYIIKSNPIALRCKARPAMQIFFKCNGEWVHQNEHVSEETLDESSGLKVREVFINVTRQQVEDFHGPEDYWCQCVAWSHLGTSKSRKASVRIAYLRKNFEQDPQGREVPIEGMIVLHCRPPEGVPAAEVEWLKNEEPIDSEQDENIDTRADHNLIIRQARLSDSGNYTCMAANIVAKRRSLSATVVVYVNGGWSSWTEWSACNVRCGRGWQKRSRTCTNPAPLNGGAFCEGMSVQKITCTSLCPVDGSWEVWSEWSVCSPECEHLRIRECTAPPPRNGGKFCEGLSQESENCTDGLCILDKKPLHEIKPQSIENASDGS
Text: as §3, §4

[7] = molecular target: T7, Human Neogenin (R&D Systems catalogue number 8607-NE; BLI antigen) (Human, UniProt Q92859 34-1105); experiment: as above
T7 construct: extracellular domain; Bought protein; also called neogenin-1 ectodomain; NEO1
T7 sequence (looked up): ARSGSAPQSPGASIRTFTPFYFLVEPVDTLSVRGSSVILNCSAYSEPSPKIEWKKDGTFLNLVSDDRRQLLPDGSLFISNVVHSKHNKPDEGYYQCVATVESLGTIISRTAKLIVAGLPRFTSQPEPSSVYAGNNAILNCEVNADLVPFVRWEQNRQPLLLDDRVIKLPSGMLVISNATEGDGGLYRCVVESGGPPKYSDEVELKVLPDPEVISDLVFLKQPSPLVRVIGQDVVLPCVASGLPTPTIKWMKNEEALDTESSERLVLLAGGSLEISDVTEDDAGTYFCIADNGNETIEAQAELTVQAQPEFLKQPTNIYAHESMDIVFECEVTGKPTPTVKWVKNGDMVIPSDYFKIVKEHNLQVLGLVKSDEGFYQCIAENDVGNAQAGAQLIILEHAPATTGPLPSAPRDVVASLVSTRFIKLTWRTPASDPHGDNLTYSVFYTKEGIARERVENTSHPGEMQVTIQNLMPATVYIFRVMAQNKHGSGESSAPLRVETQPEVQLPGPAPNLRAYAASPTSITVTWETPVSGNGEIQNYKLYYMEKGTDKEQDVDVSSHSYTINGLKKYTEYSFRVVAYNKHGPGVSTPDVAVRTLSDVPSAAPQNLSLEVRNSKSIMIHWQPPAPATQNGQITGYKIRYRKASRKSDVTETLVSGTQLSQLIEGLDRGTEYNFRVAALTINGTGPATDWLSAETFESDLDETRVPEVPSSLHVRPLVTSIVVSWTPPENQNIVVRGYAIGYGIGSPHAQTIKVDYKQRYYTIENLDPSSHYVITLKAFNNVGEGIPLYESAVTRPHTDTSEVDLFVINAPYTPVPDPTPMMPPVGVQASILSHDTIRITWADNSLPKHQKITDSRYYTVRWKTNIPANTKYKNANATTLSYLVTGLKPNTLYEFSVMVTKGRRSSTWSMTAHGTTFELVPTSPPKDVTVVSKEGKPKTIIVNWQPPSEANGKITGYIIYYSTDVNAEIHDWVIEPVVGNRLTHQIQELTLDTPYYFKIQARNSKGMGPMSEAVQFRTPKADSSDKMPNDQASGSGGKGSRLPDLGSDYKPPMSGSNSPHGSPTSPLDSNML
Text: as §3, §4

[8] = molecular target: T8, Human recombinant DCC (BLI antigen) (Human, UniProt P43146 26-1097); experiment: as above
T8 construct: also called Netrin receptor DCC ectodomain
T8 sequence (P43146 other isoform, or with tags, fused parts or gaps): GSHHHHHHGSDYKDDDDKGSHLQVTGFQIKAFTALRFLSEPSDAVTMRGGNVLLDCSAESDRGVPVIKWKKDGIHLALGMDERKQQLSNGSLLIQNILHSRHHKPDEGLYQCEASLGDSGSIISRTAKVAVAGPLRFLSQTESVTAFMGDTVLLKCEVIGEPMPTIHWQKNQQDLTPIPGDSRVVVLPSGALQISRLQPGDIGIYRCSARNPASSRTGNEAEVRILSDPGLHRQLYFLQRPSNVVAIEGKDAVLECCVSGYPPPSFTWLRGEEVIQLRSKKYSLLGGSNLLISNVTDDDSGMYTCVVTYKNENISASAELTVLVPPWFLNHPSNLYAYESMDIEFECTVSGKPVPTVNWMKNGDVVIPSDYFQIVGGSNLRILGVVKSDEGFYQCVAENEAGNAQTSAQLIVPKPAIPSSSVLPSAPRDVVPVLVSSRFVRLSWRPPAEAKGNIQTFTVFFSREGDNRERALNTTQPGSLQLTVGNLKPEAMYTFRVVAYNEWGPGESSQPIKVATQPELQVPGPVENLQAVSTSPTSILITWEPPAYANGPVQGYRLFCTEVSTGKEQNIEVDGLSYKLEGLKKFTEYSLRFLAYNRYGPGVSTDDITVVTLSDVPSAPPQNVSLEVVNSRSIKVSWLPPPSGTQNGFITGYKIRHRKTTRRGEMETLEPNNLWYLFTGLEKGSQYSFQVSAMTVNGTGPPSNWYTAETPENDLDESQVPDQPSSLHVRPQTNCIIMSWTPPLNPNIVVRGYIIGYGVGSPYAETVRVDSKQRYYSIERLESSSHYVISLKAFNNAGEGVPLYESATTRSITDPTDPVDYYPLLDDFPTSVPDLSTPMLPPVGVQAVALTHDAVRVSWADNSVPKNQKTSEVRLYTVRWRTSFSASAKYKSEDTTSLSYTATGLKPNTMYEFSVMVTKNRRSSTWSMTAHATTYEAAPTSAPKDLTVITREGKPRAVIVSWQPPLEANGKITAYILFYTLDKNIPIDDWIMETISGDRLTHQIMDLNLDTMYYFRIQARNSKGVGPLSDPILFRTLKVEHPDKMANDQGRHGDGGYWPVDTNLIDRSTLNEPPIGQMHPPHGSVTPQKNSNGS
Text: as §3, §4

[9] = molecular target: T9, mouse UNC5C in frozen C57BL/6 mouse brain sections (mouse, UniProt O08747 41-931); experiment: immunofluorescence on frozen mouse brain sections, 10 µg/ml antibody
T9 construct: Native protein in fixed tissue sections; also called UNC5C in its natural central nervous system (CNS) context; mouse brain tissue
T9 sequence (O08747 41-931 limits assumed): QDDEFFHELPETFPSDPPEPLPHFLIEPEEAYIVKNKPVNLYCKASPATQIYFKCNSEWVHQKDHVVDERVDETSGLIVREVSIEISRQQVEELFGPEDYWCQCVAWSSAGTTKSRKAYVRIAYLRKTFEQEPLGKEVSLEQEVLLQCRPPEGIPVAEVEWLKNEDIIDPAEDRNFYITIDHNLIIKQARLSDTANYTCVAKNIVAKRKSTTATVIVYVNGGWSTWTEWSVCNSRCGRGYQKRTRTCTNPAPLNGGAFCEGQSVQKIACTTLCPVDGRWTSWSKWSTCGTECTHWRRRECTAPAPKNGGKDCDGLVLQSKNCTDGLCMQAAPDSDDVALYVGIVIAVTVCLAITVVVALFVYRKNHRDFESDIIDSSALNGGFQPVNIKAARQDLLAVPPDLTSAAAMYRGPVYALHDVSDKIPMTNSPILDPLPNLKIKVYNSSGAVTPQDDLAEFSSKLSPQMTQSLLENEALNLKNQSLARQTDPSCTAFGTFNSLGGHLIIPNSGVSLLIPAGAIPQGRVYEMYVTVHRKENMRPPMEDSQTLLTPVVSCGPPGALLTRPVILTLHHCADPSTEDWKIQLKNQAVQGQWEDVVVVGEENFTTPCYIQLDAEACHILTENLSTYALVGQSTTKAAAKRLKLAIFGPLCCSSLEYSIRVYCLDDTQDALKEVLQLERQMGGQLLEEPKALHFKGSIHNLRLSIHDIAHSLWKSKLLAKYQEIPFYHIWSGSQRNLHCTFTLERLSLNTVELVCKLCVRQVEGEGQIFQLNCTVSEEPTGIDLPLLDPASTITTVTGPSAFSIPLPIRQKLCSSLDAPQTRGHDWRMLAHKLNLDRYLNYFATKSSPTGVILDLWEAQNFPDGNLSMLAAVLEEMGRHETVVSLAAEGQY

[10] = molecular target: T1, UNC5C recombinant human antigen, …; experiment: direct ELISA
Procedure: as §1, §2

[11] = molecular target: T10, Recombinant cyno UNC5C (N-terminal His and FLAG tag), in-house production from HEK293F cells (cyno, UniProt O95185 41-380 (human entry), limits assumed); experiment: direct ELISA
T10 construct: also called cyno UNC5C (Inhouse antigen); cyno antigen
T10 sequence (O95185 other isoform, or with tags, fused parts or gaps limits assumed): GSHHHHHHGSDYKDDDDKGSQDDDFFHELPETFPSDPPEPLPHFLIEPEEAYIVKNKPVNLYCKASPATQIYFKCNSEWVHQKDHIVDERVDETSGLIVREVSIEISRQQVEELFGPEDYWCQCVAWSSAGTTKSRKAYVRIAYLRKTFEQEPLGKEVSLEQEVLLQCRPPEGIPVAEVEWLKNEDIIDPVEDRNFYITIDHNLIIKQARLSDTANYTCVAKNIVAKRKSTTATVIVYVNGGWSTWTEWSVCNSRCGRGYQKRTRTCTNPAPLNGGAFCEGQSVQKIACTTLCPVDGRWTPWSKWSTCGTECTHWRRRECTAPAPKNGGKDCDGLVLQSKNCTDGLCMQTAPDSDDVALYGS
Procedure: as §1, §2

B1: ATL_0006534 (antibody, V domains shown)
VH: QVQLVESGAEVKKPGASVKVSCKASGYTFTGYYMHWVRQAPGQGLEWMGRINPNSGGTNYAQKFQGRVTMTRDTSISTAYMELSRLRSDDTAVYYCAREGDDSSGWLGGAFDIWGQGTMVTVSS
VL: NFMLTQPHSVLESPGKTVTIPCTRSSGSIASNYVQWYQQRPGSAPTAVIFEDNVRPSGVPDRFSGSVDSSSNSASLTISGLKTEDEGDFYCQSYDSSGHVVFGGGTKVTVL
notes: also called ATL_6534; Y_0001393-001
EC50 [1]: 0.01 nM

B2: ATL_0005262 (antibody, human IgG1, V domains shown)
VH: QVQLQESGPGLVKPSETLSLTCTVSGGSISSYFWTWIRQPPGKRLEWIGYIHNSGTTNQNPSLKSRVTISIDTSKNHFSLKLSSVTAADTAVYYCARGRGMATLPFDYWGQGTLVTVSS
VL: not shown
notes: also called ATL_5262; ATL5262
binding result [2]: binds
binding result [3]: binds
binding result [4]: no binding (tested: up to 100 nM)
binding result [5]: no binding (tested: up to 100 nM)
binding result [6]: no binding (tested: up to 100 nM)
binding result [7]: no binding (tested: up to 100 nM)
binding result [8]: no binding (tested: up to 100 nM)
binding result [9]: binds

B3: ATL_0006039 (antibody, IgG1, V domains shown)
VH: B2 VH with T73K
VL: not shown
notes: also called ATL_6039
binding result [3]: binds

B5: ATL_0006001 (antibody, IgG1, V domains shown)
VH: B2 VH
VL: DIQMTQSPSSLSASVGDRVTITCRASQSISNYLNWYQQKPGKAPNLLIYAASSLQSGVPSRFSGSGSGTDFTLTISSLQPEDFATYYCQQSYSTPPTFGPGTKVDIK
notes: VL pairing variant of ATL_5262; also called ATL_6001
signal over lysozyme control (fold) [10]: ≥ 3 fold
binding result [2]: binds

Continued, values first:

binding result [2]: binds
binding result [3]: binds
B4: ATL_0006191 (antibody, IgG1, V domains shown)
VH: QVQLQESGPGLVKPSETLSLTCTVSGGSIGSYFWSWIRQTPGKGLEWIGYIHYSGSSNYNPSLKSRVTISVDTFKNQFSLKLTSVTAADTAVYYCARGRGMATLPFDYWGQGTLVTVSS
VL: not shown
notes: ATL_5262 homologue VH paired with the VL of ATL_5262; also called ATL_6191; ATL6191

binding result [3]: no binding (tested: <1 µM)
binding result [11]: no binding (tested: <1 µM)
B6: ATL_0005338 (antibody, V domains shown)
VH: EVKLDETGGGLVQPGRPMKLSCVASGFTFSDYWMNWVRQSPEKGLEWVAQIRNKPYNYETYYSDSVKGRFTISRDDSKSSVYLQMNNLRVEDMGIYYCTGSYYGMDYWGQGTSVTVSS
VL: DVVMTQTPLSLPVSLGDQASISCRSSQSLVNSNGNTYLRWYLQKPGQSPKVLIYKVSNRVSGVPDRFSGSGSGTDFTLKISRVEAEDLGVYFCSQSTHVPWTFGGGTKLEIK
notes: also called ATL_5338
